Legend:
[1] = tested on: ZFP7263 (host, center linker TGSQKP) (artificial)
[2] = tested on: ZFP7263 linker LRQKDERP (artificial)
[3] = tested on: ZFP7263 linker TGEGGKP (artificial)
[4] = tested on: ZFP7263 linker TGGGGSQKP (artificial)
[5] = tested on: ZFP7263 linker TPLCQRPMKQKP (artificial)
[6] = tested on: ZFP7263 linker TPNRCPPTKP (artificial)
[7] = tested on: ZFP7263 linker TPRPPIPKP (artificial)
[8] = tested on: ZFP7263 linker TQRPQIPPKP (artificial)
[9] = tested on: ZFP7263 linker TYPRPLLAKP (artificial)
[10] = tested on: ZFP8196 linker 2d center linker F2-F3 TGEKP replaced by TLAPRPYRPPKP (artificial); assay: ELONA; details: normalized ELISA score averaged over 16 2-bp gaps
[11] = tested on: ZFP8196 linker 2e center linker F2-F3 TGEKP replaced by TPGGKSSRTDRNKP (artificial); assay: ELONA; details: normalized ELISA score averaged over 16 2-bp gaps
[12] = tested on: ZFP8196 linker 2f center linker F2-F3 TGEKP replaced by TPNPHRRTDPSHKP (artificial); assay: ELONA; details: normalized ELISA score averaged over 16 2-bp gaps
[13] = tested on: ZFP8196 linker LRQKDGGGSERP (Kim, Pabo) center linker F2-F3 TGEKP replaced by LRQKDGGGSERP (artificial); assay: ELONA; details: normalized ELISA score averaged over 16 2-bp gaps
[14] = tested on: ZFP8196 linker TASCPRPFRPPKP center linker F2-F3 TGEKP replaced by TASCPRPFRPPKP (artificial); assay: ELONA; details: normalized ELISA score, pool of 16 2-bp gaps
[15] = tested on: ZFP8196 linker TETTRPFRPPKP center linker F2-F3 TGEKP replaced by TETTRPFRPPKP (artificial); assay: ELONA; details: normalized ELISA score, pool of 16 2-bp gaps
[16] = tested on: ZFP8196 linker TGEARPYRPPKP center linker F2-F3 TGEKP replaced by TGEARPYRPPKP (artificial); assay: ELONA; details: normalized ELISA score, pool of 16 2-bp gaps
[17] = tested on: ZFP8196 linker TGGGGSGGSQKP (flexible) center linker F2-F3 TGEKP replaced by TGGGGSGGSQKP (artificial); assay: ELONA; details: normalized ELISA score averaged over 16 2-bp gaps
[18] = tested on: ZFP8196 linker TGSLRPYRRPKP center linker F2-F3 TGEKP replaced by TGSLRPYRRPKP (artificial); assay: ELONA; details: normalized ELISA score, pool of 16 2-bp gaps
[19] = tested on: ZFP8196 linker TNTTRPYRPPKP center linker F2-F3 TGEKP replaced by TNTTRPYRPPKP (artificial); assay: ELONA; details: normalized ELISA score, pool of 16 2-bp gaps
[20] = tested on: ZFP8196 linker TSINRPFRRPKP center linker F2-F3 TGEKP replaced by TSINRPFRRPKP (artificial); assay: ELONA; details: normalized ELISA score, pool of 16 2-bp gaps
[21] = tested on: ZFN7264 (host) (artificial); assay: cell_activity; details: yeast, paired with 7263 ZFN
[22] = tested on: ZFN7264 linker 1e center linker F2-F3 TGSQKP replaced by TVPRPTPPKP (artificial); assay: cell_activity; details: normalized yeast MEL-1 score
[23] = tested on: ZFN7264 linker TGGGGSQKP (artificial); assay: cell_activity; details: yeast, paired with 7263 ZFN
[24] = tested on: ZFN7264 linker TGLPKPKP (artificial); assay: cell_activity; details: yeast, paired with 7263 ZFN
[25] = tested on: ZFN7264 linker TSRPRPKP (artificial); assay: cell_activity; details: yeast, paired with 7263 ZFN
[26] = tested on: ZFP8196 (host, center linker TGEKP) (artificial)
[27] = tested on: ZFP8196 linker 1c (artificial)
[28] = tested on: ZFP8196 linker 1d (artificial)
[29] = tested on: ZFP8196 linker 1f (artificial)
[30] = tested on: ZFP8196 linker LRQKDERP (artificial)
[31] = tested on: ZFP8196 linker TCPRPPTRKP (artificial)
[32] = tested on: ZFP8196 linker TEPRAKPPKP (artificial)
[33] = tested on: ZFP8196 linker TGEGGKP (artificial)
[34] = tested on: ZFP8196 linker TGGGGSQKP (artificial)
[35] = tested on: ZFP8196 linker TGYSIPRPKP (artificial)
[36] = tested on: ZFP8196 linker TPDAPKPKP (artificial)
[37] = tested on: ZFP8196 linker TPDRPISTCKP (artificial)
[38] = tested on: ZFP8196 linker TPGLHRPKP (artificial)
[39] = tested on: ZFP8196 linker TPSHTPRPKP (artificial)
[40] = tested on: ZFP8196 linker TSPRLPAPKP (artificial)
[41] = tested on: ZFP8196 linker TSSPRSNAKP (artificial)
[42] = tested on: ZFP8196 linker TVSPAPCRSKP (artificial)

**Q.** For “TTAGCCACTCTGCTTGGAAGTGTATC (double strand) [7263 target gap CT]”, which binding signal (normalized ELISA) [1] is on record?
**A.** Its binding signal (normalized ELISA) is 0.

**Q.** And the binding signal (normalized ELISA) [2]?
**A.** Its binding signal (normalized ELISA) is 0.01.

**Q.** What about the binding signal (normalized ELISA) [3] of the same sequence?
**A.** Its binding signal (normalized ELISA) is 0.01.

**Q.** And the binding signal (normalized ELISA) [4]?
**A.** Its binding signal (normalized ELISA) is 0.02.

**Q.** What about the binding signal (normalized ELISA) [5] of the same sequence?
**A.** Its binding signal (normalized ELISA) is 0.02.

**Q.** And the binding signal (normalized ELISA) [6]?
**A.** Its binding signal (normalized ELISA) is 0.01.

**Q.** What about the binding signal (normalized ELISA) [7] of the same sequence?
**A.** The binding signal (normalized ELISA) was 0.01.

**Q.** What about the binding signal (normalized ELISA) [8] of the same sequence?
**A.** Its binding signal (normalized ELISA) is 0.01.

**Q.** And the binding signal (normalized ELISA) [9]?
**A.** Its binding signal (normalized ELISA) is 0.01.

**Q.** Which results are given for “TTAGATAAACTGNNCAAAAGGCTATC (double strand) [8196 targets 2-bp gap, all 16 compositions]”?
**A.** binding signal [10]: 0.127; binding signal [11]: 0.1; binding signal [12]: 0.219; binding signal [13]: 0.003; binding signal [14]: 0.37; binding signal [15]: 0.57; binding signal [16]: 0.61; binding signal [17]: 0.01; binding signal [18]: 0.31; binding signal [19]: 0.41; binding signal [20]: 0.57

**Q.** “AAAGCGTGCTCCG (double strand) [7264 yeast half-site gap T]” was tested. Which activity (normalized MEL-1) [21] did it give?
**A.** Its activity (normalized MEL-1) is 0.06.

**Q.** What about the activity [22] of the same sequence?
**A.** Its activity is 2.34.

**Q.** What about the activity (normalized MEL-1) [23] of the same sequence?
**A.** Its activity (normalized MEL-1) is 0.34.

**Q.** What about the activity (normalized MEL-1) [24] of the same sequence?
**A.** Its activity (normalized MEL-1) is 0.79.

**Q.** What about the activity (normalized MEL-1) [25] of the same sequence?
**A.** The activity (normalized MEL-1) was 3.38.

**Q.** Which results are given for “TTAGCCACTCTGATTGGAAGTGTATC (double strand) [7263 target gap AT]”?
**A.** binding signal (normalized ELISA) [1]: 0.01; binding signal (normalized ELISA) [2]: 0.01; binding signal (normalized ELISA) [3]: 0.01; binding signal (normalized ELISA) [4]: 0.01; binding signal (normalized ELISA) [5]: 0.05; binding signal (normalized ELISA) [6]: 0.02; binding signal (normalized ELISA) [7]: 0.01; binding signal (normalized ELISA) [8]: 0.02; binding signal (normalized ELISA) [9]: 0.01

**Q.** How did the binding signal (normalized ELISA) [26] turn out when “TTAGATAAACTGTGCAAAAGGCTATC (double strand) [8196 target gap TG]” was run?
**A.** The binding signal (normalized ELISA) was 0.

**Q.** What about the binding signal (normalized ELISA) [27] of the same sequence?
**A.** Its binding signal (normalized ELISA) is 0.

**Q.** What about the binding signal (normalized ELISA) [28] of the same sequence?
**A.** The binding signal (normalized ELISA) was 0.01.

**Q.** And the binding signal (normalized ELISA) [29]?
**A.** Its binding signal (normalized ELISA) is 0.01.

**Q.** What about the binding signal (normalized ELISA) [30] of the same sequence?
**A.** Its binding signal (normalized ELISA) is 0.

**Q.** What about the binding signal (normalized ELISA) [31] of the same sequence?
**A.** Its binding signal (normalized ELISA) is 0.01.

**Q.** What about the binding signal (normalized ELISA) [32] of the same sequence?
**A.** Its binding signal (normalized ELISA) is 0.01.

**Q.** What about the binding signal (normalized ELISA) [33] of the same sequence?
**A.** Its binding signal (normalized ELISA) is 0.

**Q.** What about the binding signal (normalized ELISA) [34] of the same sequence?
**A.** Its binding signal (normalized ELISA) is 0.

**Q.** What about the binding signal (normalized ELISA) [35] of the same sequence?
**A.** The binding signal (normalized ELISA) was 0.01.

**Q.** What about the binding signal (normalized ELISA) [36] of the same sequence?
**A.** Its binding signal (normalized ELISA) is 0.01.

**Q.** What about the binding signal (normalized ELISA) [37] of the same sequence?
**A.** The binding signal (normalized ELISA) was 0.02.

**Q.** What about the binding signal (normalized ELISA) [38] of the same sequence?
**A.** The binding signal (normalized ELISA) was 0.01.

**Q.** And the binding signal (normalized ELISA) [39]?
**A.** The binding signal (normalized ELISA) was 0.01.

**Q.** What about the binding signal (normalized ELISA) [40] of the same sequence?
**A.** Its binding signal (normalized ELISA) is 0.01.

**Q.** And the binding signal (normalized ELISA) [41]?
**A.** The binding signal (normalized ELISA) was 0.01.

**Q.** And the binding signal (normalized ELISA) [42]?
**A.** Its binding signal (normalized ELISA) is 0.01.
